The target of assay [1] is Angiotensin-converting enzyme 2 (ACE2) ectodomain, Fc-tagged (human) (UniProt Q9BYF1). In words: latex nanoparticle-enhanced turbidimetry.
For assay [2] the target is unchanged. In words: BLI. (In general: In BLI a coated tip is dipped into the sample, and binding shifts an interference pattern.)

Sequence of Angiotensin-converting enzyme 2 (ACE2) ectodomain, Fc-tagged (human) (Q9BYF1 18-740): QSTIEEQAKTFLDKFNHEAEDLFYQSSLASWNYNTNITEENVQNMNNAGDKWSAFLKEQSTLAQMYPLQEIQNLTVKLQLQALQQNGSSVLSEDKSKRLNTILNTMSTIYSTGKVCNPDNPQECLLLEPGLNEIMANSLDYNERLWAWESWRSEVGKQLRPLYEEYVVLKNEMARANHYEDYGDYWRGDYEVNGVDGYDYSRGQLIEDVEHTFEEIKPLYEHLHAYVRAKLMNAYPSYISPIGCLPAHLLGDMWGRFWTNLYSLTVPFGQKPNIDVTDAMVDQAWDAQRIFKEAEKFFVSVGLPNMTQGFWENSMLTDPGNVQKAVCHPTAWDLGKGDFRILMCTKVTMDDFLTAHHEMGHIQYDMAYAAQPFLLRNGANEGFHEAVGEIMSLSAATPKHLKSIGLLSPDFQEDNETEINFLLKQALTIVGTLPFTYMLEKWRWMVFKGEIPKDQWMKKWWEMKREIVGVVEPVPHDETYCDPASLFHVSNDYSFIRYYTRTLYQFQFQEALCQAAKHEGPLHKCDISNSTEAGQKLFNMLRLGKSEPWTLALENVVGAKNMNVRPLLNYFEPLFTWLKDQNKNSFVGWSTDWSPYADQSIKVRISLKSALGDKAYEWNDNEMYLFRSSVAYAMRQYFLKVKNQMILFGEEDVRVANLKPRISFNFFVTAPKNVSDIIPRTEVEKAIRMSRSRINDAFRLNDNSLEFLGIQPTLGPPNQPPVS

Regarding “Human milk lactoferrin (natural protein)”, the apparent Kobs (inhibition of RBD-ACE2 complex formation, initial rates) in assay [1] was determined as 6.3 µM. In assay [2], this substance gave a Kd of 27.6 µM, a koff of 0.461 s⁻¹ and a kon of 16700 M⁻¹ s⁻¹.

What is called Kd is the concentration at which binding is half-saturated. Low values mean tighter binding, high ones weaker binding. For orientation: koff means the rate constant with which the complex falls apart. The low end stands for a long-lived complex, the high end for a short-lived complex. For orientation: kon means the rate constant with which the complex forms. Read a low kon as slow association.

Source of the values: article PMC9141661.
